Experimental findings from PMC5681435 (2017) are described below.

Experiment [1] has as its target GSTCDK6 (human, UniProt Q00534 1-326). Kind of experiment: SPR. Background: Surface plasmon resonance follows binding to a sensor surface in real time, without labels.
The target of experiment [2] is T1, GSTCDK4 (human, UniProt P11802 1-303).
T1 chain: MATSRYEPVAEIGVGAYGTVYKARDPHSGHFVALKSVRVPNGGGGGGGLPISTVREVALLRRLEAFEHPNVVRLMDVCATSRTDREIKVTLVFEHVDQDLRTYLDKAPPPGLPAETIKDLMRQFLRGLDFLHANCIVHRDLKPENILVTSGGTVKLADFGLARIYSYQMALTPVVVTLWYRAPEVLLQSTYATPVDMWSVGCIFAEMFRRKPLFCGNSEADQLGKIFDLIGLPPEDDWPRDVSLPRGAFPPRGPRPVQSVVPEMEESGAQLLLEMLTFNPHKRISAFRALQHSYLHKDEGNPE
Kind of experiment: SPR.

GSTCDK6, sequence (Q00534 whole entry): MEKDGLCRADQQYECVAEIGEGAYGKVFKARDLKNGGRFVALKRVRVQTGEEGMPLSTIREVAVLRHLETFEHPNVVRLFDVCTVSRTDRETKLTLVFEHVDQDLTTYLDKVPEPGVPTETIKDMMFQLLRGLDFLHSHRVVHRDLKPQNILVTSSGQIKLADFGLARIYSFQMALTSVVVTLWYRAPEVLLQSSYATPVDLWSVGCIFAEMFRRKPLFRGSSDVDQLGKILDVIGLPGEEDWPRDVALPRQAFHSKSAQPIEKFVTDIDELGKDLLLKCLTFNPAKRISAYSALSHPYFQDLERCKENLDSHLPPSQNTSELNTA

B1: Cdc37 (analyte of the SPR titrations) (natural protein)
chain: MVDYSVWDHIEVSDDEDETHPNIDTASLFRWRHQARVERMEQFQKEKEELDRGCRECKRKVAECQRKLKELEVAEGGKAELERLQAEAQQLRKEERSWEQKLEEMRKKEKSMPWNVDTLSKDGFSKSMVNTKPEKTEEDSEEVREQKHKTFVEKYEKQIKHFGMLRRWDDSQKYLSDNVHLVCEETANYLVIWCIDLEVEEKCALMEQVAHQTIVMQFILELAKSLKVDPRACFRQFFTKIKTADRQYMEGFNDELEAFKERVRGRAKLRIEKAMKEYEEEERKKRLGPGGLDPVEVYESLPEELQKCFDVKDVQMLQDAISKMDPTDAKYHMQRCIDSGLWVPNSKASEAKEGEEAGPGDPLLEAVPKTGDEKDVSV
A word on the Kd: it is the equilibrium constant for the complex coming apart. Take B1: the Kd in experiment [1] came out at 7 µM; in experiment [2], 0.347 µM.
